This passage reports Kd results from publication PMC11931385, “Structural and functional analysis of cancer-associated missense variants in the retinoblastoma protein pocket domain” (The Journal of Biological Chemistry, 2025).

No end group written: not given here. TMR = tetramethyl rhodamine dye

What all share (test): fluorescence polarisation; 25 °C; unlabeled Rb^P titrated against 1.5 nM TMR-E2F1^TD or 7.5 nM TMR-E7^LxCxE; 25 mM Tris pH 8.0, 200 mM NaCl, 1 mM DTT, 0.1% Tween-20; 2 min incubation; quadratic fit; apparent Kd for the variants, Kd for WT
What all share (conditions): both partners purified
In general terms: Polarisation of emitted light reports the rotation of a fluorescent probe.

In test [1] the target is T1, Rb^P D604G (human, UniProt P06400 380-788, D604G).
T1 construct: also called variant 36
T1 sequence (looked up): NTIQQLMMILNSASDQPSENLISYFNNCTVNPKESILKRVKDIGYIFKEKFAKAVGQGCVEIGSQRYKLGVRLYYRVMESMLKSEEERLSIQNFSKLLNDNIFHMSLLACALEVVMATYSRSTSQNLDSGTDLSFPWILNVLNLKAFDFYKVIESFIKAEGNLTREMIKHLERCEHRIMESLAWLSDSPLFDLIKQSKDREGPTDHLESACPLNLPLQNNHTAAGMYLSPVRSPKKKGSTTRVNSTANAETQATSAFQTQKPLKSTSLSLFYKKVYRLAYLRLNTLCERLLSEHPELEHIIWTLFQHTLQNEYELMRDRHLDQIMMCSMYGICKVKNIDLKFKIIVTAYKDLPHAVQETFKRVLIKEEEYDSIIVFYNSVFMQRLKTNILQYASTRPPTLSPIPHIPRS

The target of test [2] is T2, Rb^P E693A (human, UniProt P06400 380-788, E693A).
T2 construct: also called variant 60
T2 sequence (looked up): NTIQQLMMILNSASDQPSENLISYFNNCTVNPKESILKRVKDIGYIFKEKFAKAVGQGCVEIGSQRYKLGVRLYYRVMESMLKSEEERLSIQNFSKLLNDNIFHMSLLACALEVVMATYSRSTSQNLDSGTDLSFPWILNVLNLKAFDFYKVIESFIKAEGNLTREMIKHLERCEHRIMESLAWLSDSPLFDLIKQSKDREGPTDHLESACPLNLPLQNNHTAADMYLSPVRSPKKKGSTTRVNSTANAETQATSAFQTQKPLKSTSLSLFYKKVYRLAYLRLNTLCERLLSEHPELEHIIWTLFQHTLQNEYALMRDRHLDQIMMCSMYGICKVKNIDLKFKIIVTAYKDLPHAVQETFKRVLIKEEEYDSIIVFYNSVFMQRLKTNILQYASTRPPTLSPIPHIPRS

The target of test [3] is T3, Rb^P E533K (human, UniProt P06400 380-788, E533K).
T3 construct: also called variant 22
T3 sequence (looked up): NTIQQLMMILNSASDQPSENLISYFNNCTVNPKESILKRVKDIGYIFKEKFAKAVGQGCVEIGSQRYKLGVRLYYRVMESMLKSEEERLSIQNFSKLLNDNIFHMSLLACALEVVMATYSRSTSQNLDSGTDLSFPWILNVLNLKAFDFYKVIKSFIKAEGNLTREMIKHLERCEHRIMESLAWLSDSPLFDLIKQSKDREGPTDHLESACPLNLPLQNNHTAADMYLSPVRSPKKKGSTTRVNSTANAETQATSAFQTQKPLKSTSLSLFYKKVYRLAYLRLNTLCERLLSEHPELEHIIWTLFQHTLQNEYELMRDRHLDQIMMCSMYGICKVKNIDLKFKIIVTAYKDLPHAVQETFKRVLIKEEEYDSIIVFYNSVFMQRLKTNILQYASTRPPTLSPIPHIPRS

Test [4] concerns the target T4, retinoblastoma protein pocket domain (Rb^P), wild type (human, UniProt P06400 380-788).
T4 construct: also called WT Rb^P; WT
T4 sequence (looked up): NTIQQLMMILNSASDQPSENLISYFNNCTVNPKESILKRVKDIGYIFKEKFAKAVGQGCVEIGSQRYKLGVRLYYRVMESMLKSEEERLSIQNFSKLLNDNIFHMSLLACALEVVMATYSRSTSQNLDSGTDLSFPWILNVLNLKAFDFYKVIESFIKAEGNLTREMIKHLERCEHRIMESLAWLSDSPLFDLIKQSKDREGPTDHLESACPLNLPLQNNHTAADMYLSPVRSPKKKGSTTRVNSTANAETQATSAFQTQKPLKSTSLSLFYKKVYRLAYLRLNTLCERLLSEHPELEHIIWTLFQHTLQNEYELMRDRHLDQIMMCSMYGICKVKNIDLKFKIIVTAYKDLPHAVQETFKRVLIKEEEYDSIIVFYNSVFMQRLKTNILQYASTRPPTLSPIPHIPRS

Test [5] concerns the target T5, Rb^P R621P (human, UniProt P06400 380-788, R621P).
T5 construct: also called variant 43
T5 sequence (looked up): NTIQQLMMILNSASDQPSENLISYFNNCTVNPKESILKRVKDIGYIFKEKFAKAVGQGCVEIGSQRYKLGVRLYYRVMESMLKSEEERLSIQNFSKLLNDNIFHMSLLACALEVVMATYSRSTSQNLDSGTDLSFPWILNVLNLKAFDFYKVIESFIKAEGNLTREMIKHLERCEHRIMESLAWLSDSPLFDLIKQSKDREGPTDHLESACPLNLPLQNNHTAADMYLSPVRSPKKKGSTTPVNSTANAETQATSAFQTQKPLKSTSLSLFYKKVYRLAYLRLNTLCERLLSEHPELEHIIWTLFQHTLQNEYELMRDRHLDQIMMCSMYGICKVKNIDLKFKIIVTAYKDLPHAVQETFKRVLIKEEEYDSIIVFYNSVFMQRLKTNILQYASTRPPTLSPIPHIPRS

B1: TMR-E2F1^TD, peptide of the E2F1 transactivation domain (peptide)
peptide: {TMR}-GEGIRDLFDCDFGDLTPLD
notes: also called E2F^TD; source: synthetic peptide, bought: GenScript
In the case of B1, the Kd in test [1] is 27 nM; in test [2], 42 nM; in test [3] it was 810 nM; in test [4] it was 14 nM; in test [5], 40 nM.

B2: TMR-E7^LxCxE, LxCxE peptide of the E7 oncoprotein from HPV (peptide)
peptide: DLYCYEQLN
modifications: also: TMR label, position not given here
notes: source: synthetic peptide, bought: GenScript
Consider B2, for which the Kd is 13 nM in test [1]; 7 nM in test [2]; 6 nM in test [3]; 5 nM in test [4]; 12 nM in test [5].
